Earlier results as cited in publication PMC5705969.

Key:
[1] = biological target: Kv1.1 (UniProt Q09470)
[2] = biological target: Kv1.3 (UniProt P22001)
[3] = biological target: Kv1.2 (UniProt P16389)
Sequence of UniProt P16389 (P16389 whole entry): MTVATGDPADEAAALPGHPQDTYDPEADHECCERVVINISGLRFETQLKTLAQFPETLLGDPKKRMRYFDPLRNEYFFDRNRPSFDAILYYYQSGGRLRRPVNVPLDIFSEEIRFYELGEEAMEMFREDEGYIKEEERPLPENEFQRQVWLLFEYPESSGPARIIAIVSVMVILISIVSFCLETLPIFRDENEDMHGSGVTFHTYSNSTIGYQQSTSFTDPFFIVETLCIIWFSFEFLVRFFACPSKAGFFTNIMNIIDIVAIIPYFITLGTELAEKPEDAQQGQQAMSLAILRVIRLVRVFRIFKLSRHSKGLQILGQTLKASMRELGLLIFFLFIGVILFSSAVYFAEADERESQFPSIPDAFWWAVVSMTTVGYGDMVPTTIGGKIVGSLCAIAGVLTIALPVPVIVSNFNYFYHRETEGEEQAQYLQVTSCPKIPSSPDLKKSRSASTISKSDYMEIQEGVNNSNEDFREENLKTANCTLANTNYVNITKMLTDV

Sequence of UniProt Q09470 (Q09470 whole entry): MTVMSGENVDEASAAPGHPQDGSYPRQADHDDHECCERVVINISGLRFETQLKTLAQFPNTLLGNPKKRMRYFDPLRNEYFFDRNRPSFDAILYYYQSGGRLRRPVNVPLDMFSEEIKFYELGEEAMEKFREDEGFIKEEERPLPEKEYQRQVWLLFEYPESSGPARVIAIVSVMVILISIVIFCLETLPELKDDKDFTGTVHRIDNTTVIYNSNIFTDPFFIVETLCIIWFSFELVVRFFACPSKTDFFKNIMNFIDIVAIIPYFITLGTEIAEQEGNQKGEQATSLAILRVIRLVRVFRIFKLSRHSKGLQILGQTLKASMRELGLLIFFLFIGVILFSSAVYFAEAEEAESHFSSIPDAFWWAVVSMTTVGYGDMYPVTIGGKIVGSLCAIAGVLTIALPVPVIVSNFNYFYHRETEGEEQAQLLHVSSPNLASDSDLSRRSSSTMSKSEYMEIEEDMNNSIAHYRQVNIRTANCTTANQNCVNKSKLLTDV
Sequence of UniProt P22001 (P22001 whole entry): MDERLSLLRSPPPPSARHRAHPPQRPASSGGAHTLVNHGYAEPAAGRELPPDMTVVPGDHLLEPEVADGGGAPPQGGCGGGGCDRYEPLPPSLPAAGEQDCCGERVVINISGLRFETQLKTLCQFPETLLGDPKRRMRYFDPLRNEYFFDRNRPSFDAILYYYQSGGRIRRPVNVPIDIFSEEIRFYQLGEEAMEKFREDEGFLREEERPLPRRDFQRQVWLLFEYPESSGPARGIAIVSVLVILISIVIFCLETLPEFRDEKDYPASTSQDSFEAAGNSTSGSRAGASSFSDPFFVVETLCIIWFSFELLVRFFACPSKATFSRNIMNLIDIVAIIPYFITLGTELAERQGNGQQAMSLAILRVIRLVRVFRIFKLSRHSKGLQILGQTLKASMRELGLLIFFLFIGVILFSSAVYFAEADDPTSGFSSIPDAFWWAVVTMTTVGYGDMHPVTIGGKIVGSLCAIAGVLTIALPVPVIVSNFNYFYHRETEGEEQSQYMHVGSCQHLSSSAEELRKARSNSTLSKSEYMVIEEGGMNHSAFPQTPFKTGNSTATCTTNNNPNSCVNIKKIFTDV

## AgTx-2 (from UniProt P46111)
[1]
  Kd: 0.13 nM
[2]
  Kd: 0.05 nM
[3]
  Kd: 3.4 nM
